Assay results published in PMC12144180 (Nature Communications, 2025).

B1: RNA polymerase I subunit A12 (natural protein)
chain: MSVVGSLIFCLDCGDLLENPNAVLGSNVECSQCKAIYPKSQFSNLKVVTTTADDAFPSSLRAKKSVVKTSLKKNELKDGATIKEKCPQCGNEEMNYHTLQLRSADEGATVFYTCTSCGYKFRTNN
B2: A49/A34.5 heterodimer of RNA polymerase I (complex)
chain 1: MSVKRSVSEIEIESVQDQPSVAVGSFFKGFRAPSDTTFDLYKKKKSEKDEFVLHGENERLEYEGYTDSSSQASNQYVVGLFNPEKKSIQLYKAPVLVSKVVSKSSKNLRGPKIKSKSDTRPSALRNALGEAFGTKKAKKAIADLERNRIDSDKLTDSAIDIVDSVRTASKDLPTRAQLDEITSNDRPTPLANIDATDVEQIYPIESIIPKKELQFIRVSSILKEADKEKKLELFPYQNNSKYVAKKLDSLTQPSQMTKLQLLYYLSLLLGVYENRRVNNKTKLLERLNSPPEILVDGILSRFTVIKPGQFGRSKDRSYFIDPQNEDKILCYILAIIMHLDNFIVEITPLAHELNLKPSKVVSLFRVLGAIVKGATVAQAEAFGIPKSTAASYKIATMKVPFKLPEMTRRGRGPRR
chain 2: MSKLSKDYVSDSDSDDEVISNEFSIPDGFKKCKHLKNFPLNGDNKKKAKQQQVWLIKFPSNVDISKLKSLPVDFESSTTMTIDKHDYKIMDDTDIESSLTQDNLSNMTLLVPSESKESLKIASTAKDNAPLQFDKVFSVSETAKIPAIDYSKVRVPRKDVPKVEGLKLEHFATGYDAEDFHVAEEVKENKKEPKKRSHHDDEEESSEKKKKKKEKREKREKKDKKDKKKKHRD

Biological target: T1, RNA polymerase I subunit A135 (S. cerevisiae, UniProt P22138 1-1203)
T1 sequence: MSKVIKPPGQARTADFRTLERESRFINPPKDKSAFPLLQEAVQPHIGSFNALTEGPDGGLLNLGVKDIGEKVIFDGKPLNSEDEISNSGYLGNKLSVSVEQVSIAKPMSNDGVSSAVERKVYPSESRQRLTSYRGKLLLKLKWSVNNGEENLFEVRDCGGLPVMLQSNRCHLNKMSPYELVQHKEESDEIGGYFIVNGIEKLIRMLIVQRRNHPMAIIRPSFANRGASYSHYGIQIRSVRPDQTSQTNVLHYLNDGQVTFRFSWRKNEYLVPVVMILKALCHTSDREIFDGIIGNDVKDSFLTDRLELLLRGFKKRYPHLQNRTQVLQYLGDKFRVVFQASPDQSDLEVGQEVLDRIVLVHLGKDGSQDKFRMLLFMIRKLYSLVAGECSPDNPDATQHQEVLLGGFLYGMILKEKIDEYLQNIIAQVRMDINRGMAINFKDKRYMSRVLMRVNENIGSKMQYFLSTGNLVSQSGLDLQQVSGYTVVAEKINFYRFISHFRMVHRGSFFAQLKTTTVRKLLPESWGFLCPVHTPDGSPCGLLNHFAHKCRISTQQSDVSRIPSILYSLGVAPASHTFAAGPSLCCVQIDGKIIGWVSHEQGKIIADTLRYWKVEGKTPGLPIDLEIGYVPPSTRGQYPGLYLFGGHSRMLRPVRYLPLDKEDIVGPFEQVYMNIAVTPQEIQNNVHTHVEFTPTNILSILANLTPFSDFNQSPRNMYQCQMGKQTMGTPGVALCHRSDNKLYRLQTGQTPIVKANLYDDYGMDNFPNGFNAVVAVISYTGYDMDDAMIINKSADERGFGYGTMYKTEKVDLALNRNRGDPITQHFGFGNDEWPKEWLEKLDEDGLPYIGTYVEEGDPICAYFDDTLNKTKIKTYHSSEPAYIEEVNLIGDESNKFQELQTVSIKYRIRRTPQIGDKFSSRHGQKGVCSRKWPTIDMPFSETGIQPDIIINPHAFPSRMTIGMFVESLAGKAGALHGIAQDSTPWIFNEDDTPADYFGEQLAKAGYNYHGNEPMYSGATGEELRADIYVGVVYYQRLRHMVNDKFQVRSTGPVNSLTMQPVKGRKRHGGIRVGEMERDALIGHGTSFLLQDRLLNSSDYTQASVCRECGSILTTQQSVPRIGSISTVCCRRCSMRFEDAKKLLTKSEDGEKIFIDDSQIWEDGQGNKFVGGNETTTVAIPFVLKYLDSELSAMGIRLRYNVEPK
Assay: cryo-EM structure

| Binder | binding result |
| --- | --- |
| B1 | binds |
| B2 | binds |
